Experiment [1] addresses T1, recombinant human GH (Pharmaceutical and Medical Device Regulatory Science Society of Japan) (human, UniProt P01241 27-217). Put plainly: cell-based or functional assay.
Experiment [2] deals with T1, recombinant human GH (Pharmaceutical …). The experiment can be described thus: GH-GHR binding inhibition ELISA: biotin-labeled GH (5.5 ng/mL) on captured GHR-hFc, antibody varied. The procedure:
The GH-GHR binding inhibitory activity was measured by calculating the inhibition rate of binding signal of biotin-labeled GH to GHR extracellular region protein-human Fc fusion (GHR-hFc) which was immobilized on an ELISA plate via anti-human Fcγ mouse antibody. The biotin-labeled GH was prepared by labeling recombinant GH with EZ-Link Micro NHS-PEG4-Biotinylation kit (Thermo Fisher Scientific Inc.). The specific method is as follows. Anti-human Fcγ mouse antibody (Jackson ImmunoResearch Laboratories, Inc.) diluted to 1 μg/mL PBS was immobilized at 50 μL/well on a 96-well half-area immunoplate, and the plate was blocked with PBS comprising 1% BSA. Next, GHR-hFc (R&D Systems, Inc.) diluted with assay buffer (PBS comprising 0.2% BSA and 0.05% Tween 20) to 0.1 μg/mL was added at 50 μL/well to be captured on the plate. The plate was washed with washing buffer (PBS comprising 0.05% Tween 20), followed by mixing the equivalent amount of biotin-labeled GH diluted with assay buffer to final concentration of 5.5 ng/mL and a sample (anti-GH mouse mAb-comprising sample) diluted with assay buffer, and adding the resultant mixture at 50 μL/well, and the plate was left still at room temperature for 2 hours. […] The reaction was stopped by adding an aqueous solution of 0.5 mol/L H₂SO₄, and then the absorbance at 450 nm was measured with a plate reader.
A general note: In an ELISA, binding on a coated surface is turned into a signal by an enzyme label.

For experiment [3] the target is unchanged. The experiment can be described thus: cell-based or functional assay. The source holds these as a separate data set.
The target is the same in experiment [4]. Put plainly: cell-based or functional assay. The source holds these as a separate data set.
Experiment [5] addresses recombinant cynomolgus monkey GH (cynomolgus monkey). Put plainly: cell-based or functional assay.
The target in experiment [6] is T2, placental lactogen (PL) (Protein Laboratories Rehovot Ltd.) (human, UniProt P0DML2 27-217).
T2 construct: also called human placental lactogen; GH-analogous protein
Put plainly: competitive ELISA on immobilised human GH; IC50 (human GH)/IC50 (PL) x 100. As to the method: (§1) IC₅₀ (nmol/L) for each of the anti-GH antibodies was determined by concentration-dependent curves of human GH and GH-analogous protein. The cross-reactivity to the GH-analogous protein was calculated by the following formula 3.

In experiment [7] the target is T3, prolactin (PRL) (BBT Boster Immunoleader) (human, UniProt P01236 29-227).
T3 construct: also called human prolactin; GH-analogous protein
T3 sequence (looked up): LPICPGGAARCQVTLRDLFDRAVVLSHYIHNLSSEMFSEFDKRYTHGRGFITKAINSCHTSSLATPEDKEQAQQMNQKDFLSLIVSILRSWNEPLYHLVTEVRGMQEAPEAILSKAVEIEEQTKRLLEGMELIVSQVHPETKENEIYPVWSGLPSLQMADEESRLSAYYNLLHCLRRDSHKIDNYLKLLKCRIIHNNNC
The experiment can be described thus: competitive ELISA on immobilised human GH; IC50 (human GH)/IC50 (PRL) x 100. The procedure: as §1

In experiment [8] the target is T1, recombinant human GH (Pharmaceutical …). Put plainly: SPR (BIACORE 8K+), antibody captured by anti-human IgG (Fc) on CM5 chip, GH as analyte. The procedure:
(§2) The binding properties of the recombinant anti-GH humanized antibody (Hu-13H02) and the Fc mutant thereof (Hu-13H02m) prepared in Example 11, and the chimeric antibody (Ch-13H02) prepared in Example 8 to the human GH (Pharmaceutical and Medical Device Regulatory Science Society of Japan) and the monkey GH (Example 3) were measured with SPR using BIACORE 8K+ (GE Healthcare Inc.). The antibody samples (1 μg/mL) of the three antibodies (Hu-13H02, Hu-13H02m, and Ch-13H02) were captured by anti-human IgG (Fc) antibody immobilized on a CM5 sensor chip, respectively. Next, the human GH ranging from 0.13 to 8.0 nmol/L, or the monkey GH ranging from 0.50 to 32 nmol/L was added to calculate binding and dissociation parameters.

In experiment [9] the target is recombinant cynomolgus monkey GH (cynomolgus monkey). The description is as above. As to the method: as §2

Where two headings read alike, the source gives them in different places.

T2 sequence (P0DML2 27-217 limits assumed): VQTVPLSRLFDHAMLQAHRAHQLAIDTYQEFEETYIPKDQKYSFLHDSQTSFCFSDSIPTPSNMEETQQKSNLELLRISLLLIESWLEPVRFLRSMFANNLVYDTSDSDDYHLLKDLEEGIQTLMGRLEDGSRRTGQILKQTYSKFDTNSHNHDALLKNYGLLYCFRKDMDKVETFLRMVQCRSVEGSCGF
T1 sequence (P01241 27-217 limits assumed): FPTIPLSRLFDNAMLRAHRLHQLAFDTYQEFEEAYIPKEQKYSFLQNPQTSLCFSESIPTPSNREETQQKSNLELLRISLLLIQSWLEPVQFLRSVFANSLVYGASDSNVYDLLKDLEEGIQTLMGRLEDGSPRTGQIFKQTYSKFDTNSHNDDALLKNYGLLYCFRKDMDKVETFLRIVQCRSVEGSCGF
Sequence of recombinant cynomolgus monkey GH (cynomolgus monkey) (P33093 27-217): as the sequence (P01241 27-217 limits assumed) above, with A105T, D107Y, N109D, P133S, D153N, V173I counted along it

B1: anti-GH mouse mAb 13H02 (antibody, mouse IgG2a, V domains shown)
VH: QGQMQQSGGELVNPGSSVKMSCKTSGFTFTSSEISWLKQKPGQSLEWIAWIYPGTGSSKFNQKFTGKAQLTAETSSSTAYMQLSSLTSEDSAIYYCARRGFFGGSFDYWGQGTTLTISS
VL: QIVLAQSPAIMSASLGERVTMTCTATSSVSSSYLHWYQQKPGSSPKLWIYSTSNLASGVPARFSGSGSGTSYSLTISSMEAEDAATYYCHQYHHSPPTFGAGTKLELK
notes: also called parent mouse antibody (13H02)
As a reminder, the IC50 is the point on the concentration scale where inhibition reaches its midpoint. For B1, the “GH-dependent Nb2 cell proliferation inhibitory activity (IC50)” value in experiment [1] came to 3.36 pM. Moreover, the IC50 in experiment [2] was found to be 65.3 pM.

B2: recombinant anti-GH mouse-human chimeric mAb (Ch-13H02) (antibody, human IgG1, V domains shown)
VH: QGQMQQSGGELVNPGSSVKMSCKTSGFTFTSSEISWLKQKPGQSLEWIAWIYPGTGSSKFNQKFTGKAQLTAETSSSTAYMQLSSLTSEDSAIYYCARRGFFGGSFDYWGQGTTLTISS
VL: QIVLAQSPAIMSASLGERVTMTCTATSSVSSSYLHWYQQKPGSSPKLWIYSTSNLASGVPARFSGSGSGTSYSLTISSMEAEDAATYYCHQYHHSPPTFGAGTKLELK
notes: also called Ch-13H2; anti-GH chimeric antibody
As usually defined, the Kd is the concentration at which binding is half-saturated. A word on the koff: it is the first-order rate constant of dissociation. One may read the kon as the rate constant with which the complex forms. Take B2: the “GH-dependent Nb2 cell proliferation inhibitory activity (IC50)” value in experiment [3] amounted to 6.27 pM. For the same molecule, the “Neutralizing activity in GH-dependent Nb2 cell proliferation inhibition assay (IC50)” value in [4] is 2.65 pM; in experiment [5] it was 13.6 pM. The cross-reactivity in [6] and in experiment [7] was below 1% throughout. The dissociation constant Kd in experiment [8] was 12 pM; in experiment [9], 74 pM. The results for the off-rate (koff) in experiment [8] and in experiment [9] were 2.4e-05 s⁻¹ and 3.4e-05 s⁻¹, respectively. The values for the kon in [8] and in [9] were 1.9e+06 M⁻¹ s⁻¹ and 450000 M⁻¹ s⁻¹, respectively.

B3: recombinant anti-GH humanized antibody (Hu-13H02) (antibody, human IgG1, V domains shown)
VH: QVQMVQSGAEVKKPGASVKVSCKASGFTFTSSEISWLRQAPGQRLEWIAWIYPGTGSSKFNQKFTGKATLTADTSASTAYMELSSLRSEDTAVYYCARRGFFGGSFDYWGQGTTVTVSS
VL: DIQLTQSPSFLSASVGDRVTITCTATSSVSSSYLHWYQQKPGKAPKLWIYSTSNLASGVPSRFSGSGSGTEFTLTISSLQPEDFATYYCHQYHHSPPTFGGGTKVEIK
notes: also called humanized 13H02
On to B3, for which, in experiment [5], the “Neutralizing activity in GH-dependent Nb2 cell proliferation inhibition assay (IC50)” value is 48 pM. Moreover, the cross-reactivity in experiment [6] is below 1%. In experiment [7], this molecule came in with a cross-reactivity below 1%. Also, in experiment [9], the dissociation constant Kd was determined as 130 pM, the koff stood at 6.2e-05 s⁻¹ and the kon is 470000 M⁻¹ s⁻¹.

B4: anti-GH humanized antibody Fc mutant (Hu-13H02m) (antibody, human IgG1, kappa, V domains shown)
VH: QVQMVQSGAEVKKPGASVKVSCKASGFTFTSSEISWLRQAPGQRLEWIAWIYPGTGSSKFNQKFTGKATLTADTSASTAYMELSSLRSEDTAVYYCARRGFFGGSFDYWGQGTTVTVSS
VL: DIQLTQSPSFLSASVGDRVTITCTATSSVSSSYLHWYQQKPGKAPKLWIYSTSNLASGVPSRFSGSGSGTEFTLTISSLQPEDFATYYCHQYHHSPPTFGGGTKVEIKR
notes: also called Fc variant of Hu-13H02
For B4, the “Neutralizing activity in GH-dependent Nb2 cell proliferation inhibition assay (IC50)” value in experiment [5] was 30.1 pM. This molecule also registered a cross-reactivity in [6] below 1%. The molecule further yielded a cross-reactivity in [7] below 1%. In experiment [9], the Kd was determined as 130 pM, the koff was determined as 6.9e-05 s⁻¹ and the on-rate (kon) was determined as 520000 M⁻¹ s⁻¹.

The record behind these values is patent US20240391996A1 (TAISHO PHARMACEUTICAL, published 2024).
